In patent US20200330603A1, “PEPTIDES FOR RENAL THERAPY” (FRED HUTCHINSON CANCER RESEARCH CENTER, priority 2015, published 2020):
“And” between values parts separate entries of the source, which are not always exact repeats. Equal entries are not always repeated.

System: not listed separately
Assay: Plasma BUN, assessment of renal injury (Example 14)
Format: in vivo, mice
Details: Table 3; 100 nmol iv (approximately 16 mg/kg), 24 hours post-peptide administration
Method: (§1) This example illustrates assessment of renal injury by peptides of this disclosure. Mice were injected intravenously at a dose of 100 nmol, which is approximately 16 mg/kg. PBS was administered as a negative control. At 24 hours post-peptide administration, mice were euthanized and plasma blood urea nitrogen (BUN) and plasma creatinine were measured. The blood urea nitrogen (BUN) assay was performed to assess renal toxicity with a commercially available kit. Plasma creatinine concentrations were determined using the colorimetrically corrected Jaffe reaction method. Additionally, the kidneys from these mice were removed, sectioned, and stained using periodic acid Schiff (PAS). […] Histological analysis corroborated the mRNA/protein data.

| Sequence | Plasma BUN |
| --- | --- |
| GSGDCLPHLKRCKENNDCCSKKCKRRGANPEKRCR [SEQ ID NO: 18] | 19.5 mg/dL |
| GSQDKCKKVYENYPVSKCQLANQCNYDCKLDKHARSGECFYDEKRNLQCICDYCEY [SEQ ID NO: 39] | 20.5 mg/dL |
| GSQFTDVKCTGSKQCWPVCKQMFGKPNGKCMNGKCRCYS [SEQ ID NO: 26] | 19 mg/dL |
| GSQKILSNRCNNSSECIPHCIRIFGTRAAKCINRKCYCYP [SEQ ID NO: 20] | 25 mg/dL |
| GSVFINVKCRGSPECLPKCKEAIGKSAGKCMNGKCKCYP [SEQ ID NO: 36] | 21.5 mg/dL |

Same assay, conditions: Table 4; 100 nmol iv; time not stated for this column (mRNAs at four hours)

| Sequence | Plasma BUN |
| --- | --- |
| GSQFTNVSCTTSRECWSVCQRLHNTSRGRCMNRRCRCYS [SEQ ID NO: 5] | 23 mg/dL |

System: not listed separately
Assay: Temperature stability at 70° C., RP-HPLC
Format: physicochemical
Details: non-reducing conditions, 70° C. for 1 hour
Method: (§2) This example describes peptide stability in the presence of pepsin, trypsin, a reducing agent, or elevated temperature. Peptides were first suspended in 500 µl of ddH2O to a stock concentration of 2 mg/ml. […] These reactions were then quenched with 5 μg of soybean trypsin inhibitor (I) and, in some cases, 10 mM dithiothreitol (DTT). […] Temperature stability was tested by incubating peptides in non-reducing conditions at 70° C. for 1 hour. Stability was evaluated by RP-HPLC.

| Sequence | Temperature (70° C.) |
| --- | --- |
| GSVFINVKCRGSPECLPKCKEAIGKSAGKCMNGKCKCYP [SEQ ID NO: 36] | Resistant |

System: trypsin
Assay: Peptide stability in the presence of trypsin, RP-HPLC
Format: in vitro ADME
Details: 5 μg trypsin, pH 7.0, 30 minutes at 37.5° C.
Method: as §2

| Sequence | Trypsin |
| --- | --- |
| GSGDCLPHLKRCKENNDCCSKKCKRRGANPEKRCR [SEQ ID NO: 18] | Partially Resistant |
| GSQDKCKKVYENYPVSKCQLANQCNYDCKLDKHARSGECFYDEKRNLQCICDYCEY [SEQ ID NO: 39] | Partially Resistant |
| GSQFTDVKCTGSKQCWPVCKQMFGKPNGKCMNGKCRCYS [SEQ ID NO: 26] | Partially Resistant |
| GSQFTNVSCTTSRECWSVCQRLHNTSRGRCMNRRCRCYS [SEQ ID NO: 5] | Resistant |
| GSQKILSNRCNNSSECIPHCIRIFGTRAAKCINRKCYCYP [SEQ ID NO: 20] | Partially Resistant |
| GSVFINVKCRGSPECLPKCKEAIGKSAGKCMNGKCKCYP [SEQ ID NO: 36] | Not Resistant |

System: not listed separately
Assay: Kidney histology, periodic acid Schiff (PAS) stain
Format: in vivo, mice
Details: 24 hours after intravenous administration of 100 nmol
Method: as §1

| Sequence | renal physiology (PAS histology, FIG. 24) |
| --- | --- |
| GSGDCLPHLKRCKENNDCCSKKCKRRGANPEKRCR [SEQ ID NO: 18] | normal renal physiology |
| GSQDKCKKVYENYPVSKCQLANQCNYDCKLDKHARSGECFYDEKRNLQCICDYCEY [SEQ ID NO: 39] | normal renal physiology |
| GSQFTDVKCTGSKQCWPVCKQMFGKPNGKCMNGKCRCYS [SEQ ID NO: 26] | normal renal physiology |
| GSQKILSNRCNNSSECIPHCIRIFGTRAAKCINRKCYCYP [SEQ ID NO: 20] | normal renal physiology |
| GSVFINVKCRGSPECLPKCKEAIGKSAGKCMNGKCKCYP [SEQ ID NO: 36] | normal renal physiology |

System: pepsin
Assay: Peptide stability in the presence of pepsin, RP-HPLC
Format: in vitro ADME
Details: 20 μg pepsin, pH 1.05, 30 minutes at 37.5° C.
Method: as §2

| Sequence | Pepsin |
| --- | --- |
| GSQFTNVSCTTSRECWSVCQRLHNTSRGRCMNRRCRCYS [SEQ ID NO: 5] | Resistant |
| GSVFINVKCRGSPECLPKCKEAIGKSAGKCMNGKCKCYP [SEQ ID NO: 36] | Resistant |

System: not listed separately
Assay: Peptide stability to a reducing agent (DTT), RP-HPLC
Format: physicochemical
Details: 10 mM DTT in PBS, room temperature, 30 minutes
Method: as §2

| Sequence | Reduction |
| --- | --- |
| GSGDCLPHLKRCKENNDCCSKKCKRRGANPEKRCR [SEQ ID NO: 18] | Partially Resistant |
| GSQDKCKKVYENYPVSKCQLANQCNYDCKLDKHARSGECFYDEKRNLQCICDYCEY [SEQ ID NO: 39] | Not Resistant |
| GSQFTDVKCTGSKQCWPVCKQMFGKPNGKCMNGKCRCYS [SEQ ID NO: 26] | Not Resistant |
| GSQFTNVSCTTSRECWSVCQRLHNTSRGRCMNRRCRCYS [SEQ ID NO: 5] | Resistant |
| GSQKILSNRCNNSSECIPHCIRIFGTRAAKCINRKCYCYP [SEQ ID NO: 20] | Resistant |
| GSVFINVKCRGSPECLPKCKEAIGKSAGKCMNGKCKCYP [SEQ ID NO: 36] | Not Resistant |

System: not listed separately
Assay: Blood urea nitrogen (BUN) assay in plasma, renal biocompatibility (Example 4)
Format: in vivo, mice
Details: 100 nmol per mouse intravenously, after 24 hours, one value per mouse
Method: This example describes renal biocompatibility of peptides of this disclosure. The peptides of SEQ ID NO: 18, SEQ ID NO: 20, SEQ ID NO: 21, SEQ ID NO: 26, SEQ ID NO: 36, SEQ ID NO: 39, SEQ ID NO: 45 and SEQ ID NO: 53 were intravenously dosed into mice at 100 nmol per mouse. After 24 hours, mice were anesthesized with Ketamine-Xylazine and euthanized. Plasma and kidneys were removed as quickly as possible after euthanization. A blood urea nitrogen (BUN) assay was performed to assess renal toxicity with a commercially available kit.
The average BUN concentration in plasma for naïve mice was 25 mg/dL, with a standard error of 2 mg/dL. The average BUN concentration in plasma for peptide-dosed mice was 21, with a standard error of 1 mg/dL.

| Sequence | Peptide BUN |
| --- | --- |
| GSGDCLPHLKRCKENNDCCSKKCKRRGANPEKRCR [SEQ ID NO: 18] | 21 mg/dL and 18 mg/dL |
| GSQDKCKKVYENYPVSKCQLANQCNYDCKLDKHARSGECFYDEKRNLQCICDYCEY [SEQ ID NO: 39] | 23 mg/dL and 18 mg/dL |
| GSQFTDVKCTGSKQCWPVCKQMFGKPNGKCMNGKCRCYS [SEQ ID NO: 26] | 19 mg/dL |
| GSQKILSNRCNNSSECIPHCIRIFGTRAAKCINRKCYCYP [SEQ ID NO: 20] | 29 mg/dL and 21 mg/dL |
| GSVFINVKCRGSPECLPKCKEAIGKSAGKCMNGKCKCYP [SEQ ID NO: 36] | 22 mg/dL and 21 mg/dL |

System: NGAL mRNA
Assay: Stress-induced mRNA by RT-PCR, NGAL
Format: in vivo, mice
Details: four hours post-peptide administration
Method: (§3) At four hours post-peptide administration, potential renal injury was assessed by measuring three stress-induced mRNAs (MCP-1, NGAL, and TNFa).

| Sequence | mNGAL/GAPDH |
| --- | --- |
| GSQFTNVSCTTSRECWSVCQRLHNTSRGRCMNRRCRCYS [SEQ ID NO: 5] | 1.76 |

System: not listed separately
Assay: Whole body autoradiography of 14C labeled peptides, renal cortex and blood
Format: in vivo, mice
Details: renal cortex vs blood from the ventricle, 100 nmol iv, 3 hours
From the text: This example describes radiolabeling of peptides of this disclosure. Several knotted peptides were radiolabeled by reductive methylation with ^14C formaldehyde and sodium cyanoborohydride with standard techniques. The sequences were engineered to have the amino acids, “G” and “S” at the N terminus. See Methods in Enzymology V91:1983 p. 570 and JBC 254(11):1979 p. 4359. An excess of formaldehyde was used to ensure complete methylation (dimethylation of every free amine). The labeled peptides were isolated via solid-phase extraction on Strata-X columns (Phenomenex 8B-S100-AAK), rinsed with water with 5% methanol, and recovered in methanol with 2% formic acid. Solvent was subsequently removed in a blowdown evaporator with gentle heat and a stream of nitrogen gas. The final product was verified and characterized by high performance liquid chromatography (HPLC).
This example illustrates accumulation of peptides of the present disclosure in kidneys measured by whole body autoradiography. Peptides of the present disclosure were radiolabeled as described in EXAMPLE 2. 100 nmol of ^14C labeled peptides were administered intravenously in mice. Radiolabeled peptide signal was quantified in the renal cortex and blood from the ventricle in 2-3 sections per mouse in 2 mice total. Whole body autoradiography analysis was performed with AIDA.
SEQ ID NO: 55 and SEQ ID NO: 119 ([…]), a linearized version of SEQ ID NO: 55, were radiolabeled with ^14C as described in EXAMPLE 2 and administered intravenously in mice at a dose of 100 nmol. Radiolabeled peptide signal was quantified in the renal cortex and blood from the ventricle in 2-3 sections per mouse in 2 mice total. Whole body autoradiography analysis was performed with AIDA.

| Sequence | Signal ratio Kidney:Blood (3 hours) |
| --- | --- |
| GSQFTNVSCTTSRECWSVCQRLHNTSRGRCMNRRCRCYS [SEQ ID NO: 5] | 27.2 |

Same assay, conditions: renal cortex vs blood from the ventricle, 100 nmol iv, 24 hours

| Sequence | Signal ratio Kidney:Blood (24 hours) |
| --- | --- |
| GSQFTNVSCTTSRECWSVCQRLHNTSRGRCMNRRCRCYS [SEQ ID NO: 5] | 6.4 |

Same assay, conditions: renal cortex, 100 nmol 14C labeled peptide iv, 3 hours

| Sequence | Pixel density-Bkg/area (3 hours) |
| --- | --- |
| GSQFTNVSCTTSRECWSVCQRLHNTSRGRCMNRRCRCYS [SEQ ID NO: 5] | 1.40E+07 |

Same assay, conditions: renal cortex, 100 nmol 14C labeled peptide iv, 24 hours

| Sequence | Pixel density-Bkg/area (24 hours) |
| --- | --- |
| GSQFTNVSCTTSRECWSVCQRLHNTSRGRCMNRRCRCYS [SEQ ID NO: 5] | 1.81E+06 |

System: not listed separately
Assay: Plasma creatinine, Jaffe reaction method (Example 14)
Format: in vivo, mice
Details: Table 3; 100 nmol iv, 24 hours post-peptide administration
Method: as §1

| Sequence | Plasma Creatinine |
| --- | --- |
| GSGDCLPHLKRCKENNDCCSKKCKRRGANPEKRCR [SEQ ID NO: 18] | 0.43 mg/dL |
| GSQDKCKKVYENYPVSKCQLANQCNYDCKLDKHARSGECFYDEKRNLQCICDYCEY [SEQ ID NO: 39] | 0.32 mg/dL |
| GSQFTDVKCTGSKQCWPVCKQMFGKPNGKCMNGKCRCYS [SEQ ID NO: 26] | 0.33 mg/dL |
| GSQKILSNRCNNSSECIPHCIRIFGTRAAKCINRKCYCYP [SEQ ID NO: 20] | 0.5 mg/dL |
| GSVFINVKCRGSPECLPKCKEAIGKSAGKCMNGKCKCYP [SEQ ID NO: 36] | 0.4 mg/dL |

Same assay, conditions: Table 4; 100 nmol iv; time not stated for this column (mRNAs at four hours)

| Sequence | Plasma Creatinine |
| --- | --- |
| GSQFTNVSCTTSRECWSVCQRLHNTSRGRCMNRRCRCYS [SEQ ID NO: 5] | 0.23 mg/dL |

System: TNFa mRNA
Assay: Stress-induced mRNA by RT-PCR, TNFa
Format: in vivo, mice
Details: four hours post-peptide administration
Method: as §3

| Sequence | mTNFa/GAPDH |
| --- | --- |
| GSQFTNVSCTTSRECWSVCQRLHNTSRGRCMNRRCRCYS [SEQ ID NO: 5] | 2.55 |

System: HO-1 mRNA
Assay: mRNA by RT-PCR, HO-1
Format: in vivo, mice
Details: four hours post-peptide administration

| Sequence | mHO-1/GAPDH |
| --- | --- |
| GSQFTNVSCTTSRECWSVCQRLHNTSRGRCMNRRCRCYS [SEQ ID NO: 5] | 0.62 |

System: MCP-1 mRNA
Assay: Stress-induced mRNA by RT-PCR, MCP-1
Format: in vivo, mice
Details: four hours post-peptide administration
Method: as §3

| Sequence | mMCP-1/GAPDH |
| --- | --- |
| GSQFTNVSCTTSRECWSVCQRLHNTSRGRCMNRRCRCYS [SEQ ID NO: 5] | 0.79 |
